According to patent publication US20160274120A1, “METHODS OF DETERMINING WHETHER THE WNT SIGNALING PATHWAY IS UPREGULATED IN A TUMOR” (ICAHN SCHOOL OF MEDICINE AT MOUNT SINAI, priority 2009, published 2016):

Experiments:
human sarcoma cells = test: Proliferation of sarcoma cells in vitro (1000 cells/60 mm, 10 days, crystal violet); type: cell-based; details: A2984, HT1080 and HCT116 cells, lentiviral shRNA
Method: FIGS. 16A-16F. Downregulation of CDC25A, a novel Wnt target gene, inhibits proliferation of human sarcoma cells in vitro. A. CDC25A is a direct target of Wnt signaling in sarcoma cells. Chromatin immunoprecipitation was conducted on DNA extracted from U-2 OS, a Wnt autocrine sarcoma cell line. Monoclonal antibody against β-catenin was used in immunoprecipitation. Axin 2, a known Wnt target gene, was used as a positive control. […] C. Downregulation of Wnt signaling (assayed by TCF4 reporter activity) in sarcoma cells expressing dnTCF4. Cells stably expressing TOP luciferase and a normalizer, renilla luciferase, were used in this assay. D. dnTCF expression induces growth arrest in sarcoma cells. Indicated human sarcoma cells were stably infected with dnTCF or an empty vector control and selected in puromycin for 3 days. Cells were plated at 1000 cells/60 mm
density and cultured for 10 days. […] E Knockdown of CDC25A or c-myc induces growth arrest in sarcoma cells. HCTZ 16, a human colon cancer cell line was used for comparison. Indicated cells were stably infected with either empty vector control or shRNA specific for CDC25A or c-myc and selected in puromycin and plated at 1000 cells/60 mm plate and cultured for 10 days. Cells were fixed and stained with crystal violet. F. Western blotting to show specific downregulation of CDC25A or c-myc after shRNA expression in indicated cells. […]

uncomplexed β-catenin = test: Uncomplexed β-catenin, GST-E-cadherin pull-down and immunoblot in NSCLC cells expressing Wnt antagonists; type: cell-based, human; details: for uncomplexed β-catenin level: H1819 NSCLC cells, stable (constitutive) expression
Method: FIGS. 2A-2E. Effects of FRP1 and DKK1 inhibition on Wnt/β-catenin signaling and growth of human NSCLC cells. (A) Effects of constitutive expression of FRP1 and DKK1 on uncomplexed β-catenin in H1819 NSCLC cell line. FRP1 and DKK1 expression was determined by immunoblot analysis as described in Materials and methods. (B) Analysis of NSCLC lines for uncomplexed β-catenin using regulatable expression of HA-tagged FRP1 (upper panel) and Flag-tagged DKK1 (lower panel). NSCLC cells expressing Tet regulatable FRP1-HA or DKK1-Flag were generated as described in supplemental Materials and methods. Expression of FRP1-HA or DKK1-Flag was induced by removal of dox from the culture medium. Cells expressing tetracycline Trans-activator (tTa) were used as control. Analysis of uncomplexed β-catenin was performed as described in Materials and methods using 1 mg total cell lysates, except for A427 cells, where 0.1 mg cell lysate was used. FRP1 and DKK1 expression was determined by immunoblot analysis as described in Materials and methods. (C) FRP1 and DKK1 mediated inhibition of TCF luciferase reporter activity in NSCLC cell lines. Luciferase reporter activity was calculated by dividing the TOP/RL ratio by the FOP/RL ratio. Results were normalized to the results with vector transduced cultures. The values represent the mean±SD from two independent experiments. (D) Real time PCR quantification of FRP1 and DKK1 effects on axin2 mRNA expression. H23, Al 146 and H1819 cells were infected with vector (VEC), FRP1-HA or DKK1-Flag lentiviruses. qRT-PCR was performed as described in supplemental Materials and methods. Relative mRNA expression levels were quantified using the ΔΔC(t) method (Pfaffl, 2001). (E) Effects of DKK1 on cell growth. A549, H23, H1819 and A427 cells were infected with lentiviruses expressing vector (VEC) or DKK1-Flag and 2×10^4 cells were plated into 60 mm tissue culture dishes. Cultures were visualized using crystal violet staining 2-3 weeks after plating. Expression of flagged tagged DKK1 was assessed by immunoblot analysis as described in Materials and methods.
GST-E-cadherin binding and immunoblot analysis was performed as previously described (Bafico et al, 1998), with the exception that for human tumor samples it was done with freshly frozen or stored tissue under cold, mild-detergent conditions. Specifically, the following protocol to assay for uncomplexed (active) β-catenin in human tumor samples was used:
(§1) analysis, cells were co-infected with TOP or FOP firefly luciferase mixed with a lentivirus expressing renilla luciferase (RL) used to normalize for infection efficiency (1:20-1:40 ratio). To assess the effects of FRP1 and DKK1 on TCF luciferase reporter activity, stable reporter cell lines were plated in 6 well plates and infected with vector, FRP1 or DKK1 lentiviruses. Cells were selected for 3 days with puromycin, lysed and processed for dual luciferase analysis. To generate stable inducible lines, cells were infected consecutively with tetracycline trans-activator (tTa) expressing lentivirus, selected for two weeks with 5-10 μg/ml blasticidin, followed by a second infection with lentiviruses expressing inducible FRP1, DKK1, DNTCF-4 or DNTCF-4-mOrange or empty vector, and selected for 4-7 days in 2 μg/ml puromycin in the presence of 10 ng/ml doxycycline. For induction of the antagonists, cells were trypsinized, washed with PBS and plated into 10 cm plates in the presence or absence of doxycyclin. Control cells expressing tTa or empty vector were processed in the same way. All infections were performed for 16 hr in the presence of 8 μg/ml polybrene.

TCF reporter activity = test: TCF mediated luciferase reporter activity (TOP/FOP) in NSCLC cell lines; type: cell-based, human; details: around 30% of Wnt activated NSCLC lines (summary)
Method: 24 hours before infection, stable reporter cell lines expressing TOP or FOP TCF luciferase and renilla luciferase were plated in 6 well plates at I×IO^5 cells/well. The following day cells were infected with lentiviruses expressing different Wnt antagonists, selected with 2 μg/ml puromycin for 3 days, lysed and processed for luciferase reporter assay using the dual luciferase reporter Kit (Promega) according to the manufacturer's protocol. Luciferase reporter activity was calculated by dividing the ratio TOP/RL by the FOP/RL ratio. Results were normalized to the results with vector transduced cultures.
as §1

axin2 = test: Real time PCR quantification of axin2 mRNA expression in NSCLC cells; type: cell-based, human; details: around 30% of Wnt activated NSCLC lines (summary)
Method: Total RNA was isolated from cells using the Trizol Reagent (Invitrogen) according to the manufacturer's protocol. Semi-quantitative RT-PCR screen was performed using One Step RT-PCR Kit (Invitrogen) according to the manufacturer's protocol. PCR products were separated on 1% agarose gel. 5 μg total RNA was reverse transcribed using Superscript II reverse transcriptase (Invitrogen). Quantitative PCR was performed using SybrGreen 2× master mix (Roche) on a MJ Opticon or Stratagene MxPro3005. 50 ng cDNA were amplified as follows: 94° C. for 15 min, 94° C. for 15 s, 60° C. for 30 s, 72° C. for 1 min. Steps 2 through 4 were repeated for 40 cycles. Each reaction was performed in duplicate, and results of 3 independent experiments were used for statistical analysis. Relative mRNA expression levels were quantified using the ΔΔC(t) method (Pfaffl, 2001). Results were normalized to those for TATA Binding Protein (TBP). Primer sequences can be found in Tables 4 and 5.

NSCLC cells = test: Cell growth analysis assay (crystal violet staining) of NSCLC cells; type: cell-based, human; details: stable DKK1 expression
From the text: Transduced and marker selected cells were trypsinized, counted and 1-2×10^4 cells plated into 60 mm tissue culture dishes. At 2-3 weeks, cells were washed with PBS, fixed in 10% methanol/acetic acid solution and stained with 1% crystal violet.

[1] = test system: autocrine Wnt NSCLC cells; test: Sensitization of NSCLC cells to cisplatin (colony growth, annexin/PI FACS); type: cell-based, human; details: H23 (autocrine Wnt) vs A549 cells, lentiviral DKK1, cisplatin
Method: FIGS. 13A and 13E. […] (A and B) Effects of cisplatin on growth of H23 (A) and A549 (B) cells infected with vector (VEC) or DKK1 expressing lentiviruses. 5×10^3 H23 and A549 cells expressing vector or DKK1 were plated in 60 mm plates. Cells were treated for 4 hr with 5 or 20 μM cisplatin or saline as control and colonies were visualized 2 weeks later by crystal violet staining. (C and D) Effects of cisplatin on apoptosis of H23 (C) and A549 (D) cells infected with vector (VEC) or DKK1 expressing lentiviruses and treated for 3 days with increasing concentrations of cisplatin. Adherent and floating cells were collected and processed for FACS analysis using annexin/PI. The percentage of annexin positive cells in vector or DKK1 infected cells is represented in the line graph. Results are the mean±SD of 3 independent experiments. Statistical two-way analysis of variance (ANOVA) tests with Bonferroni multiple testing corrections were performed. *−p<0.05, **−p<0.01, ***−p<0.001. […] Cell lysates were collected every 24 hr and analyzed by immunoblot. […]
For DNA content analysis, cells were trypsinized, combined with floating cells, washed with PBS, stained with propidium iodide (PI), using the CycleTEST Plus DNA reagent kit (Becton Dickinson) following the manufacturer instructions, and subjected to FACS analysis. […] Results were analyzed using Cell Quest 3.2 software (Becton Dickinson).

[2] = H23 and A1146 tumor lines, inducible system, low expression in the presence of dox
[3] = around 30% of Wnt activated NSCLC lines (summary)

Row | Molecule | proliferation (human sarcoma cells) | uncomplexed β-catenin levels (uncomplexed β-catenin; [2]) | uncomplexed β-catenin level (uncomplexed β-catenin) | uncomplexed β-catenin levels (uncomplexed β-catenin; H2347, H358 or A427 cells) | uncomplexed β-catenin levels (uncomplexed β-catenin; [3]) | TCF reporter activity (TCF reporter activity) | expression of the Wnt target gene axin2 (axin2) | uncomplexed β-catenin levels (uncomplexed β-catenin; H23 and A1146 cells, full induction (dox removed)) | cell growth / proliferation vs vector control (NSCLC cells; A549 (no Wnt activation) and A427 (β-catenin mutant) cells) | cell growth / proliferation vs vector control (NSCLC cells; H23 and H1819 tumor cells) | sensitization to cisplatin treatment [1]
1 | CDC25A shRNA: shRNA specific for CDC25A, 5′CCAGGGAATTTCATTCCTC3′ (SEQ ID NO: 62) (CCAGGGAAATTTCATTCCTC; chemistry not fully specified) | inhibited proliferation to varying degrees | – | – | – | – | – | – | – | – | – | –
2 | FRP1: secreted Frizzled Related Protein, Wnt antagonist inhibiting Wnt ligand-receptor interaction; HA-tagged, expressed from lentiviral vector (protein, UniProt Q8N474 32-314, looked up, HA tag, HA-tagged, expressed from lentiviral vector) Secreted frizzled-related …: SEYDYVSFQSDIGPYQSGRFYTKPPQCVDIPADLRLCHNVGYKKMVLPNLLEHETMAEVKQQASSWVPLLNKNCHAGTQVFLCSLFAPVCLDRPIYPCRWLCEAVRDSCEPVMQFFGFYWPEMLKCDKFPEGDVCIAMTPPNATEASKPQGTTVCPPCDNELKSEAIIEHLCASEFALRMKIKEVKKENGDKKIVPKKKKPLKLGPIKKKDLKKLVLYLKNGADCPCHQLDNLSHHFLIMGRKVKSQYLLTAIHKWDKKNKEFKNFMKKMKNHECPTFQSVFK | – | significant reduction | marked decrease | no effect | dramatic decrease | dramatic decrease | dramatic decrease | – | – | – | –
3 | DKK1: Dickkopf-1, secreted Wnt antagonist binding co-receptor LRP6; Flag-tagged, expressed from lentiviral vector (protein, UniProt O94907 32-266, looked up, Flag tag, Flag-tagged, expressed from lentiviral vector) Dickkopf-related protein 1: TLNSVLNSNAIKNLPPPLGGAAGHPGSAVSAAPGILYPGGNKYQTIDNYQPYPCAEDEECGTDEYCASPTRGGDAGVQICLACRKRRKRCMRHAMCCPGNYCKNGICVSSDQNHFRGEIEETITESFGNDHSTLDGYSRRTTLSSKMYHTKGQEGSVCLRSSDCASGLCCARHFWSKICKPVLKEGQVCTKHRRKGSHGLEIFQRCYCGEGLSCRIQKDHHQASNSSRLHTCQRH | – | decrease | marked decrease | no effect | dramatic decrease | dramatic decrease | dramatic decrease | further reduced | not associated with any detectable growth inhibition | antiproliferative effects | specifically sensitizes
